{"source": "paper PMC12658125", "about": "“Oligomerisation of Ku from Mycobacterium tuberculosis promotes DNA synapsis” (Nature Communications, 2025)", "binders": {"B1": {"name": "Blunt-DNA 50 bp (dsDNA)", "DNA 1": "CCTCTAGACCTGTACTACTCGAGAGATCGATCGACAGACGATGACTTAGC", "DNA 2": "GCTAAGTCATCGTCTGTCGATCGATCTCTCGAGTAGTACAGGTCTAGAGG"}, "B2": {"name": "FAM-DNA, 32 bp with 3' 20dT overhang (mixed)", "DNA 1": "GGAATGTAACCATCGTTGGTCGGCAGCAGGGCTTTTTTTTTTTTTTTTTTTT", "DNA 2": "GCCCTGCTGCCGACCAACGATGGTTACATTCC"}}, "key": {"[1]": {"target": "T1, Ku-Mtb (Mycobacterium tuberculosis, UniProt P9WKD9 1-273)", "T1 sequence": "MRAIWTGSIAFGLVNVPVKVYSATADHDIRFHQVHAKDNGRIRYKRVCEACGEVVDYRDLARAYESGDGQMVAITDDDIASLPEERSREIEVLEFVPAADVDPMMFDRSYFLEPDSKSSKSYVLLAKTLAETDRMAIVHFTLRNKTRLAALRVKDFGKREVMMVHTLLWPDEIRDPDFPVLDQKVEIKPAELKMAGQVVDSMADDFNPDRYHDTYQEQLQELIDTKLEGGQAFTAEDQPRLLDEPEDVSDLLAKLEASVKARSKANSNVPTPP", "assay": "EMSA; 5 mM MgCl2", "conditions": "protein: recombinant; tags: His (Ni-NTA purified, pET45b); chain copies: 2; blunt"}, "[2]": {"target": "T1, Ku-Mtb", "assay": "EMSA", "conditions": "protein: recombinant; tags: His (Ni-NTA purified, pET45b); chain copies: 2; label: 5' FAM on strand 1; 3' overhang 20 nt on strand 1"}, "[3]": {"target": "T1, Ku-Mtb", "assay": "FIDA (hydrodynamic radius)", "conditions": "protein: recombinant; tags: His (Ni-NTA purified, pET45b); chain copies: 2; label: 5' FAM on strand 1; 3' overhang 20 nt on strand 1"}}, "data": [{"binder": "B1", "values": [{"measurement": "binding result", "setting": "[1]", "result": "binds"}]}, {"binder": "B2", "values": [{"measurement": "binding result", "setting": "[2]", "result": "binds"}, {"measurement": "binding result", "setting": "[3]", "result": "binds"}]}]}
